In paper PMC4408115:

Target: SPbCZ5: leucine zipper-GGSG-LucY (from A235)-…-Avi-tag (Geobacillus species)
Assay: split reporter (BiFC, NanoBiT); LucY protein-fragment complementation: LucY fragments fused to antiparallel leucine zippers, co-expressed in E. cloni 10G (E. coli), 16-18 h at 37°C; whole-cell fluorescence in PBS (excitation 485 nm, emission 528 nm) as percent of CZ (zipper fused to whole LucY)

## SPbNZ5: His6-LucY (to H234)-GGSGSS-leucine zipper
  fluorescence, percent of CZ control (% of CZ control): 33
